The text below walks through data of patent CN107522783A (HUABO BIOPHARM MEDICINE TECH SHANGHAI CO LTD, dated 2017).

The target in assay [1] is T1, Recombinant human IL-17A (Sino Biological, 12047-HNAS) (human, UniProt Q16552 24-155).
T1 construct: mature; Bought recombinant protein; also called 人IL-17A; huIL-17A
T1 sequence (looked up): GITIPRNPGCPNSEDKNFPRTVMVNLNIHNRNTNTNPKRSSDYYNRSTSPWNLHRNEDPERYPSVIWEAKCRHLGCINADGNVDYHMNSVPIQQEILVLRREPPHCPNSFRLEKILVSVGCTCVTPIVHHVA
The experiment in a line: indirect ELISA, human IL-17A coated (Table 5, species cross-reactivity). (In general: In an ELISA, binding on a coated surface is turned into a signal by an enzyme label.)

The target of assay [2] is T2, Recombinant marmoset IL-17A (Sino Biological, 90287-CNAE-100) (marmoset, UniProt A0ACM8QD00 24-153).
T2 construct: Bought recombinant protein; also called 狨猴IL-17A
T2 sequence: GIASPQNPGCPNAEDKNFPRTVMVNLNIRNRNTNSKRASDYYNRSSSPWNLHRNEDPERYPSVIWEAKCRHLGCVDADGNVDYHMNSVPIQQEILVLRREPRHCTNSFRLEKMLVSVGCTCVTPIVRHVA
Put plainly: indirect ELISA, marmoset IL-17A coated (Table 6).

In assay [3] the target is T3, Recombinant mouse IL-17A (Sino Biological, PBV10159R-010) (mouse, UniProt Q62386 26-158).
T3 construct: Bought recombinant protein; also called 小鼠的IL-17A
T3 sequence (looked up): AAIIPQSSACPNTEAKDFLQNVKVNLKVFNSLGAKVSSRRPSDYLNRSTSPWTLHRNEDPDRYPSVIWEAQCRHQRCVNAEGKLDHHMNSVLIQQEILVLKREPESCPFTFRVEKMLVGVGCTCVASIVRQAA
Put plainly: indirect ELISA, mouse IL-17A coated at 1 μg/ml; paragraph 219 says 与小鼠的IL-17A无结合.

Assay [4] addresses T1, Recombinant human IL-17A (Sino …). The experiment in a line: indirect ELISA, human IL-17A coated at 1 μg/ml.
Assay [5] has the same target. Put plainly: Biacore SPR, antibody captured on anti-human capture CM5 chip, IL-17A as analyte, 1:1 model. (In general: SPR reads the build-up and loss of mass on a sensor chip optically.)

B1: 嵌合抗体 (antibody, V domains shown)
VH: QVQLQQSGPEVVRPGVSVKISCKGSGYTFTDYAMHWVKQSHAKSLEWIGVIGPYNDNTNYNQKFKGKATMTVDKSSSTAYMEIARLTSEDSAIYYCARGERYFDYWGQGTTLTVSS
VL: DIQMTQSSSYLSVSLGGRVTITCRASDHINNWLAWYQQKPGNAPRLLIYGATSLETGVPSRFSGSGSGKDYTLSITSLQTEDVATYYCQQYWTIPLTFGAGTKLELK
notes: also called chimeric 14F10/9F6 antibody; 本发明嵌合抗体
The EC50 is the concentration that produces a half-maximal response. Usually Kd stands for the free concentration of one partner at which half of the binding sites on the other are occupied at equilibrium, for simple one-to-one binding. As usually defined, the koff is the first-order rate constant of dissociation. By kon is commonly meant the rate constant with which the complex forms. With B1, the EC50 in assay [1] worked out at 0.03 µg/mL. In addition, in assay [2], the EC50 is 0.0264 µg/mL. Besides, in assay [3], the binding result is given as “no binding”. Further, the EC50 in assay [4] was determined as 0.03 µg/mL. Besides, in assay [5], the Kd is 0.097 nM, the koff amounted to 0.000101 s⁻¹ and the kon was 1.04e+06 M⁻¹ s⁻¹.

B2: 人源化抗体 (antibody, V domains shown)
VH: QVQLVQSGAEVKKPGASVKVSCKASGYTFTDYAMHWVRQAPGQGLEWMGVIGPYNDNTNYAQKFQGRVTMTVDTSTSTVYMELSSLRSEDTAIYYCARGERYFDYWGQGTTVTVSS
VL: DIQMTQSPSTLSASVGDRVTITCRASDHINNWLAWYQQKPGKAPKLLIYGATSLETGVPSRFSGSGSGTEYTLTISSLQPDDFATYYCQQYWTIPLTFGQGTKLEIK
notes: Expressed in CHO-K1; also called IL17-HC5-1D4/IL17-LC5-1C5; 本发明人源化抗体
In the case of B2, in assay [5], the Kd was 0.019 nM, the koff was found to be 0.000181 s⁻¹ and the kon is 9.56e+06 M⁻¹ s⁻¹.
